The record followed here is article PMC6614843 (2019).

Assay [1] addresses T1, Polβ(WT), purified recombinant (human, UniProt P06746 1-335). The assay can be described thus: SPR; mean of repeats. In general terms: In SPR one partner is held on a chip, and binding of the other changes the refractive index at the surface.
Assay [2] deals with T2, Polβ(T304I), purified recombinant (human, UniProt P06746 1-335, T304I). The assay can be described thus: SPR; mean of repeats.
In assay [3] the target is T1, Polβ(WT), purified recombinant. Description: SPR; representative experiment.
The target of assay [4] is T2, Polβ(T304I), purified recombinant. The assay can be described thus: SPR; representative experiment.

B1: NTD-XRCC1(1-151)-His (domain or fragment)
chain: MPEIRLRHVVSCSSQDSTHCAENLLKADTYRKWRAAKAGEKTISVVLQLEKEEQIHSVDIGNDGSAFVEVLVGSSAGGAGEQDYEVLLVTSSFMSPSESRSGSNPNRVRMFGPDKLVRAAAEKRWDRVKIVCSQPYSKDSPFGLSFVRFHS
In general, Kd refers to the equilibrium constant for the complex coming apart. B1: the Kd in assay [1] was determined as 0.534 µM; in assay [2], 3.3 µM; in assay [3], 0.358 µM; in assay [4], 3.65 µM.
